Measurements published in IntAct's records for PubMed 16778766.

B1: Estrogen receptor (Mus musculus), P19785 (parent)
chain: MTMTLHTKASGMALLHQIQGNELEPLNRPQLKMPMERALGEVYVDNSKPTVFNYPEGAAYEFNAAAAAAAAASAPVYGQSGIAYGPGSEAAAFSANSLGAFPQLNSVSPSPLMLLHPPPQLSPFLHPHGQQVPYYLENEPSAYAVRDTGPPAFYRSNSDNRRQNGRERLSSSNEKGNMIMESAKETRYCAVCNDYASGYHYGVWSCEGCKAFFKRSIQGHNDYMCPATNQCTIDKNRRKSCQACRLRKCYEVGMMKGGIRKDRRGGRMLKHKRQRDDLEGRNEMGASGDMRAANLWPSPLVIKHTKKNSPALSLTADQMVSALLDAEPPMIYSEYDPSRPFSEASMMGLLTNLADRELVHMINWAKRVPGFGDLNLHDQVHLLECAWLEILMIGLVWRSMEHPGKLLFAPNLLLDRNQGKCVEGMVEIFDMLLATSSRFRMMNLQGEEFVCLKSIILLNSGVYTFLSSTLKSLEEKDHIHRVLDKITDTLIHLMAKAGLTLQQQHRRLAQLLLILSHIRHMSNKGMEHLYNMKCKNVVPLYDLLLEMLDAHRLHAPASRMGVPPEEPSQTQLATTSSTSAHSLQTYYIPPEAEGFPNTI

Variants of: B1
Settings: with cnot1_human CNOT1, A5YKK6
Sequence of cnot1_human CNOT1, A5YKK6 (A5YKK6 whole entry): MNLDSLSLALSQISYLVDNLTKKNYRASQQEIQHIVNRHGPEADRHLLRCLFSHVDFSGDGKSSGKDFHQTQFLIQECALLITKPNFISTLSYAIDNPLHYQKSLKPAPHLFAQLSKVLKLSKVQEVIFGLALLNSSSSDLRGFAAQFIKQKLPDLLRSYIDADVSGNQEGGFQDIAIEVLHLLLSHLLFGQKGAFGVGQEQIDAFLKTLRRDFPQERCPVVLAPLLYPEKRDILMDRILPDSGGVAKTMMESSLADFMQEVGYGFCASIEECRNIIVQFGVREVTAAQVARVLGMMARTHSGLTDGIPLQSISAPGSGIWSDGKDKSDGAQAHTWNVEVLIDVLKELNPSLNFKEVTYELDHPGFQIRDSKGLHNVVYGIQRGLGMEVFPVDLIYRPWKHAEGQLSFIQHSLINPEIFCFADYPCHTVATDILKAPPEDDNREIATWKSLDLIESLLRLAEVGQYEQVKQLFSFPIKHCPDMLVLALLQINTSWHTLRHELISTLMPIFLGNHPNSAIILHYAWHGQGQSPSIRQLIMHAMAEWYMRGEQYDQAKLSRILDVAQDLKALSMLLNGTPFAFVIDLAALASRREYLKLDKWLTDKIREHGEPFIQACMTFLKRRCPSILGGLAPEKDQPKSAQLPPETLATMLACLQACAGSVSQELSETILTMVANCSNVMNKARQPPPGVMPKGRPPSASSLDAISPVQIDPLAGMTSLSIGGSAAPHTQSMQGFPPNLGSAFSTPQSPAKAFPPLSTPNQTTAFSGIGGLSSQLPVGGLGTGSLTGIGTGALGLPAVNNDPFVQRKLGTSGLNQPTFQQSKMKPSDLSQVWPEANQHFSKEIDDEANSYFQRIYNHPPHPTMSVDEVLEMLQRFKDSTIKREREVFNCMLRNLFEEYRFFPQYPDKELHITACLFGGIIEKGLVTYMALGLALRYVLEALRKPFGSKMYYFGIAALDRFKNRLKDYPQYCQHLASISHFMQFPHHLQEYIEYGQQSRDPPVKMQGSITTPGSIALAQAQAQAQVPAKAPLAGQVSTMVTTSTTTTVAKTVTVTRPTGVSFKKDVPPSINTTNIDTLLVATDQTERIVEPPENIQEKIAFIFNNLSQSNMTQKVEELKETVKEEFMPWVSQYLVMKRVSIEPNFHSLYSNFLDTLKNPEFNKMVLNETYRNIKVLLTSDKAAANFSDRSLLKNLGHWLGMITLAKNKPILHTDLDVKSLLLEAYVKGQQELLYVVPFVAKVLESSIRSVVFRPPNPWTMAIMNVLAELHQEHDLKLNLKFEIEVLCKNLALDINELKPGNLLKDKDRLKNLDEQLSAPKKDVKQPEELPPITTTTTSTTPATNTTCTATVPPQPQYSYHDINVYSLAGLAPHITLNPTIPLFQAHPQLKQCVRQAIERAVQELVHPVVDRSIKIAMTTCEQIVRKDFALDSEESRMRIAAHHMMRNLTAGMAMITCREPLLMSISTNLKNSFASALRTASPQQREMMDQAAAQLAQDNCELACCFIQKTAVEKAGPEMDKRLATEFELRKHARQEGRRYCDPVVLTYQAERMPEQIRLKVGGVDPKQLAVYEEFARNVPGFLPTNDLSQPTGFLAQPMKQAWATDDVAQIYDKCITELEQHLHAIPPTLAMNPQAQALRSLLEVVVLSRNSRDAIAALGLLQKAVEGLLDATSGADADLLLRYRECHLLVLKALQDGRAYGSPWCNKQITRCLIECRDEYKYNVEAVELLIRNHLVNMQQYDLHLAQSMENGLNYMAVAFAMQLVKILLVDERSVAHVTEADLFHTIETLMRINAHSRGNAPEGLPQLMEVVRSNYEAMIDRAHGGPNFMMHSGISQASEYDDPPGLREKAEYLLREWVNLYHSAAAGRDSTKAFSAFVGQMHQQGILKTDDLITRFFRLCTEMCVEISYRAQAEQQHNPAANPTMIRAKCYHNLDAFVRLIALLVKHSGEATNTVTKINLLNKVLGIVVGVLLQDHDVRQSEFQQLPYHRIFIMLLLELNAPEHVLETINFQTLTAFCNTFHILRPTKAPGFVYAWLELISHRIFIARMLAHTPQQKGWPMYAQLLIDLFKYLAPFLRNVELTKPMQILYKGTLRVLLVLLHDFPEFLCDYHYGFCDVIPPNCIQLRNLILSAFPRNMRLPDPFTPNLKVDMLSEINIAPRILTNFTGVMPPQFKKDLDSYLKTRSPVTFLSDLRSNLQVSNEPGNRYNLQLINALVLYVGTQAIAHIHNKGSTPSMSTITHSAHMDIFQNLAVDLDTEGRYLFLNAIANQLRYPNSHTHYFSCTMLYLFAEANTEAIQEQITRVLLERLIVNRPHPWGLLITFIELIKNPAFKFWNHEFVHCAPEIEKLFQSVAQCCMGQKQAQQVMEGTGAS

Variant	effect of a mutation on the interaction
L548A	disrupting interaction
M547A	disrupting interaction
